Data: patent publication US20090232804A1 (GLENMARK PHARMACEUTICALS S A, published 2009)
Positions count from the first letter of the chain named. Names may count otherwise. “And” between values parts separate entries of the source, which are not always exact repeats. Equal values may be shown once.

Tests used:
[1] = biological target: His tagged A1 domain of human von Willebrand factor (residues 499-729), expressed in E. coli (human) (UniProt P04275); test: DELFIA competitive binding format (time-resolved fluorescence): Eu-NMC-4 chimera at 100 pM on wells coated with His-hA1, unlabelled AJW200 varied; EC50 of the enhancement of Eu-NMC-4 binding
[2] = biological target: purified human von Willebrand factor (vWF) (human) (UniProt P04275); test: cell-based or functional assay
[3] = biological target: His tagged A1 domain of human von Willebrand factor (residues 499-729), expressed in E. coli (human) (UniProt P04275); test: competition with 100 pM Eu-NMC-4 chimera on plate-coated human His-A1, DELFIA, Cheng-Prusoff
[4] = biological target: His tagged A1 domain of human von Willebrand factor (residues 499-729), expressed in E. coli (human) (UniProt P04275); test: DELFIA competitive binding (time-resolved fluorescence): Eu-NMC-4 chimera at 100 pM on wells coated with His-hA1, unlabelled competitor antibody varied (homologous competition)
[5] = biological target: His tagged A1 domain of human von Willebrand factor (residues 499-729), expressed in E. coli (human) (UniProt P04275); test: calculated from koff, DELFIA kinetics on plate-coated His-A1, 37 °C
[6] = biological target: His tagged A1 domain of human von Willebrand factor (residues 499-729), expressed in E. coli (human) (UniProt P04275); test: equilibrium binding (Scatchard), Eu-labelled antibody on direct-coated His-A1, DELFIA, 37 °C, n = 10
[7] = biological target: His tagged A1 domain of human von Willebrand factor (residues 499-729), expressed in E. coli (human) (UniProt P04275); test: homologous competition with 100 pM Eu-NMC-4 chimera on plate-coated human His-A1, DELFIA, Cheng-Prusoff
[8] = biological target: His tagged A1 domain of human von Willebrand factor (residues 499-729), expressed in E. coli (human) (UniProt P04275); test: ratio of the kinetic constants (row printed as 'kon/koff'), DELFIA, 37 °C
[9] = biological target: His tagged A1 domain of human von Willebrand factor (residues 499-729), expressed in E. coli (human) (UniProt P04275); test: homologous competition with Eu-NMC-4 chimera on plate-coated His-A1, DELFIA, Cheng-Prusoff, n = 4
[10] = biological target: T1, purified human von Willebrand factor (vWF) (human, UniProt P04275 764-2813); test: cell-based or functional assay
[11] = biological target: T1, purified human von Willebrand factor …; test: cell-based or functional assay; remark: listed apart in the source
[12] = biological target: T1, purified human von Willebrand factor …; test: cell-based or functional assay; remark: listed apart in the source
[13] = biological target: T1, purified human von Willebrand factor …; test: cell-based or functional assay; remark: listed apart in the source
[14] = biological target: T2, His tagged A1 domain of rat von Willebrand factor, expressed in E. coli (rat, UniProt Q62935 13-256); test: DELFIA association kinetics, Eu-labelled antibody on plate-coated His-A1, 37 °C
T2 construct: domain: A1 domain; also called His-A1 (rat); His-rA1; not shown: His tag from the pETDuet-1 vector

[15] = biological target: T2, His tagged A1 domain of rat von …; test: equilibrium binding (Scatchard), Eu-labelled antibody on direct-coated His-A1, DELFIA, 37 °C, n = 5
Experimental: Equilibrium binding assays are performed as follows. Eu-antibody is pre-diluted into Binding Buffer (e.g., Wash buffer containing 100 μg/ml IgG-free BSA and 0.1% sodium azide) and applied to wells (e.g., 10 μl/well) of a 96-well plate and the plates sealed with SEALPLATE film. The plates are shaken (e.g., Titer Plate Shaker speed setting of 4 for ≧15 sec or 60 sec at RT), placed into nalgene boxes containing wet paper towels, and incubated in the closed boxes for 2 hours at 37° C. For the measurement of free label, supernatant samples (4.0 μl) are transferred from the wells containing binding mixtures into a parallel set of wells containing DELFIA Enhancement Solution (100 μl/well). To assess bound antibody, the A1-coated wells with the remaining binding mixtures are washed five times with Wash Buffer, tapped dry onto paper towels and DELFIA Enhancement Solution (100 μl/well) added to the empty wells for the measurement of bound label. For assay calibration, DELFIA Enhancement Solution (100 μl/well) is added to unused wells and Europium Standard (1.0 μl/well) is added. The plates are shaken (e.g., Titer Plate Shaker speed setting of 5 for 10 minutes at room temperature), and time-resolved fluorescent (TRF) intensities are read using a Victor2 multi-label plate reader (Perkin-Elmer Wallac, Boston, Mass.). […]

[16] = biological target: T2, His tagged A1 domain of rat von …; test: calculated from koff, DELFIA kinetics on plate-coated His-A1, 37 °C
[17] = biological target: T2, His tagged A1 domain of rat von …; test: homologous competition with Eu-NMC-4 chimera on plate-coated rat His-A1, DELFIA, Cheng-Prusoff, n = 3
Experimental: Wells of Immulon-4 plates are coated with His-A1 domain of vWF from human (e.g., 25 ng in 100 μl/well in 30 mM Tris, pH 7.4 and 300 mM NaCl or divalent cation-free PBS) or rat (e.g., 50 ng/well) by incubating overnight at 4° C. The plates are washed three times with Wash Buffer (e.g., 50 mM HEPES, pH 7.4, 150 mM NaCl, 0.5% Tween-20), blocked with 300 μl/well Blocking Buffer (e.g., Wash Buffer containing 3.0 mg/ml IgG-free BSA and 0.1% sodium azide) for 1 hour at room temperature and washed 5 times with Wash Buffer before use.
Competitive binding studies may be performed to determine Ki values (e.g., a measure of relative affinity for antigen). […] The final concentration of europium-labeled antibody is 100 pM.

[18] = biological target: T2, His tagged A1 domain of rat von …; test: ratio of the kinetic constants (row printed as 'kon/koff'), DELFIA, 37 °C

Molecule “AJW200 reference antibody (anti-vWF A1 domain, cloned with human IgG1(dm) constant region)” has an EC50 (read off the curve) [1] of 0.2 nM and an EC50, ristocetin-induced platelet agglutination assay [2] of 0.27 nM.

“NMC-4 monoclonal antibody (murine anti-vWF antibody, IgG1κ)” showed a Ki [3] of 0.6 nM.

Work on “NMC-4-human Fc chimera (NMC-4 variable regions on human IgG1(dm) and human kappa constant regions) (antibody)” yielded an IC50 (read off the curve) [4] of 0.6 nM, a Dissociation half-life [5] of 44 min and a Kd [6] of 0.316 nM. It also gave a Ki [7] of 0.28 nM, a Kd [8] of 0.39 nM and a Ki [9] of 0.275 nM.

B1: NMC-4 monoclonal antibody (murine anti-vWF antibody, IgG1κ) (antibody, V domains shown)
VH: QVQLKESGPGLVAPSQSLSITCTVSGFSLTDYGVDWVRQPPGKGLEWLGMIWGDGSTDYNSALKSRLSITKDNSKSQVFLKMNSLQTDDTARYYCVRDPADYGNYDYALDYWGQGTSVTVSS
VL: DIQMTQSPSSLSASLGDRVTISCSASQDINKYLNWYQQKPDGAVKLLIFYTSSLHSGVPSRFSGSGSGTDYSLTISNLEPEDIATYYCQQYEKLPWTFGGGTKLEVKR
In the case of B1, the “EC50, ristocetin-induced platelet agglutination assay” value [10] is reported as 0.17 nM.

B2: humanized NMC-4 variant H14, L11 (IgG1) (antibody, V domains shown)
VH: QVQLQESGPGLVKPSETLSLTCTVSGGSISDYGWDWIRQPPGKGLEWIGMIWGDGSTDYNPSLKSRVTISVDTSKNQFSLKLSSVTAADTAVYYCARDPADYGNYDYALDYWGQGTLVTVSS
VL: DIQMTQSPSSLSASVGDRVTITCQASQDISNYLNWYQQKPGKAPKLLIYDASNLETGVPSRFSGSGSGTDFTLTFSSLQPEDFATYYCQQYEKLPWTFGQGTKVEIK
With B2 the “fold lower activity compared to chimera, platelet agglutination assay” value [10] was 10 fold and the “EC50 (nM), platelet agglutination assay” value [11] was 1.63 nM.

B3: humanized NMC-4 variant H8, L5 (IgG1) (antibody, V domains shown)
VH: QVQLQESGPGLVKPSETLSLTCTVSGFSLTDYGVDWIRQPPGKGLEWIGMIWGDGSTDYNSALKSRLTISKDNSKNQFSLKLSSVTAADTAVYYCVRDPADYGNYDYALDYWGQGTSLTVSS
VL: DIQMTQSPSSLSASVGDRVTITCSASQDINKYLNWYQQKPGKAVKLLIFYTSSLHSGVPSRFSGSGSGTDYTLTISSLQPEDIATYYCQQYEKLPWTFGQGTKVEIK
With B3 the “EC50” value [12] was 0.28 nM and the “fold change of EC50 against the other variants” value [10] was 1.5 fold.

B4: humanized NMC-4 variant H9, L9 (CDR-grafted), IgG1 (antibody, V domains shown)
VH: B3 VH with L67V, K71V, N73T, V96A, S117L, L118V
VL: B3 VL with V44P, F49Y, Y71F, I83F
In the case of B4, the “EC50” value [12] is reported as 0.12 nM, the “EC50 (nM), platelet agglutination assay” value [11] is reported as 0.12 nM and the “Platelet agglutination EC50, single experiment” value [13] is reported as 1.3 nM. The “Platelet agglutination EC50 mean value (from 2 independent expts.)” value [13] was 1.3 nM.

B5: humanized NMC-4 variant H14, L9 (IgG1) (antibody, V domains shown)
VH: B2 VH
VL: B3 VL with V44P, F49Y, Y71F, I83F
For B5, the “EC50 (nM), platelet agglutination assay” value [11] was 0.13 nM.

B6: humanized NMC-4 variant H12, L9 (IgG1) (antibody, V domains shown)
VH: B2 VH with W34V, P61S, S62A
VL: B3 VL with V44P, F49Y, Y71F, I83F
With B6 the “EC50 (nM), platelet agglutination assay” value [11] was 0.29 nM.

B7: humanized NMC-4 variant H13, L10 (IgG1) (antibody, V domains shown)
VH: B2 VH with P61S, S62A
VL: B2 VL with D50Y, A51T, N53S, E55H, T56S, F75I
In the case of B7, the “EC50 (nM), platelet agglutination assay” value [11] is reported as 0.2 nM.

B8: humanized NMC-4 variant H13, L9 (IgG1) (antibody, V domains shown)
VH: B2 VH with P61S, S62A
VL: B3 VL with V44P, F49Y, Y71F, I83F
B8 was tested, and the “EC50 (nM), platelet agglutination assay” value [11] was 0.16 nM.

B9: humanized NMC-4 variant H14, L10, IgG1 (antibody, V domains shown)
VH: B2 VH
VL: B2 VL with D50Y, A51T, N53S, E55H, T56S, F75I
For B9, the “EC50 (nM), platelet agglutination assay” value [11] was 0.22 nM, the “Platelet agglutination EC50, single experiment” value [13] was 1.1 nM and 1.3 nM and the “Platelet agglutination EC50 mean value (from 2 independent expts.)” value [13] was 1.2 nM.

B10: NMC-4-human Fc chimera (NMC-4 variable regions on human IgG1(dm) and human kappa constant regions) (antibody, V domains shown)
VH: B1 VH
VL: B3 VL with V15L, T22S, G41D, K42G, T72S, S77N, Q79E, Q100G, V104L, I106V
notes: Heavy constant region is human IgG1 with L235E, E318A, K320A, K332A (IgG1(dm)); also called NMC-4 chimera; NMC4 chimera
With B10 the kon [14] was 233000 M⁻¹ s⁻¹, the Kd [15] was 0.276 nM and the Dissociation half-life [16] was 69 min. For the same molecule, the Ki [17] was 0.297 nM and the Kd [18] was 0.7 nM.
